{"source": "the nanobody polyreactivity screen of Harvey et al. (2022)"}
{"assay": "yeast display, Sf9 membrane polyspecificity reagent, FACS + sequencing; frameworks hold sequencing errors", "outline": "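A synthetic nanobody library was expressed on Saccharomyces cerevisiae BJ5465 by galactose induction for 36–48 hours. The library was stained for 1 hour at 4 °C with 10% biotinylated, detergent-solubilized Sf9 membrane reagent and enriched with streptavidin microbeads before FACS. Low and high (top ~1%) gates were set on anti-HA fluorescence for expression and streptavidin fluorescence for reagent binding, and each polyreactivity label reflects the gate of origin.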"}
{"sequence": "QVQLEESGGGLVQAGGSLRLSCAASGITFTLNAMGWYRQAPGKERELVATINRGTGTNYADSVKGRFTISRDNAKYTVYLQMNSLKPEVTAVYYCAADHRGEYDYWGQGTQVTVSS", "polyreactivity (PSR sort gate)": "low polyreactivity"}
{"sequence": "QVQLEESGGGLVQAGGSLRLSCAASGITFVGNAMGWYRQAPGKERELVAGIRGNGGSTYYADSVKGRFTISRDNAKNTVYLQMHSMNPEDTAVYYCAAAAYYADFDYWGQGTQVTVSS", "polyreactivity (PSR sort gate)": "low polyreactivity"}
{"sequence": "QVQLEESGGGLVQAGGSLRLSCAASGITYYYAMGWYRQAPGKERELVAVITPGVSTNYADSVKGRFTISRDNAKNSVYLHMNSLKPEDTAVYYCATDVQVPCIGRSVYAYEYWGQGTQVTVSS", "polyreactivity (PSR sort gate)": "low polyreactivity"}
{"sequence": "QVQLEESGGGLVQAGGSLRLSCAASGLICVLYTMGSYRQAPGKERELVATINWGGGNTYYADSVKGRFTISRDNAKNTVYLQMNSLKPEDTAVYYCAAAYTWYGYSQAYYYWGQGTQVTVSS", "polyreactivity (PSR sort gate)": "low polyreactivity"}
{"sequence": "QVQLEESGGGLVQAGGSLRLSCAASGLTLGRYAMGWYRQAPGKERELVAVITGGGSTNYADSVKGRFTISRDNAKNTVYLQMNSLKPEDTAVYSCAVRGGIFQTLSTWYRYYYWGQGTQVTVSS", "polyreactivity (PSR sort gate)": "high polyreactivity"}
{"sequence": "QVQLEESGGGLVQAGGSLRLSCAASGRIFAGYAMGWYRQEPGKERELVAAINGSGADTYYADSVKGRFTISRDNAKNTVYLQMNSLKPEDTAVYYCAASPGSQYTGYDYWGQGTQVTVSS", "polyreactivity (PSR sort gate)": "low polyreactivity"}
{"sequence": "QVQLEESGGGLVQAGGSLRLSCAASGRIFGVYAMGWYRQAPGKERELVAAISWSASSTYYADSVKGRFTISRDNAKNTVYLQMNSLKPEDTAVYYCNAEVLGFYELDYWGQGTQVTVSS", "polyreactivity (PSR sort gate)": "high polyreactivity"}
{"sequence": "QVQLEESGGGLVQAGGSLRLSCAASGRIFKSYTMGGYRQAPGKERELVAAITKSAASTYYADSVKGRFTISRDNAKNTVYLQMNSLKPVDTAVYYCAASRIGGGKVKFGYWGQGTQVTVSS", "polyreactivity (PSR sort gate)": "high polyreactivity"}
{"sequence": "QVQLEESGGGLVQAGGSLRLSCAASGRIFMTYAMGWYRQAPGKERELVAAITRRGGTTYYADSEKARFTISRDNAKNTVYLQMNCLKPEDTAVYYCAPAKPRVISQNIIYDYWGQGTQVTVSS", "polyreactivity (PSR sort gate)": "high polyreactivity"}
{"sequence": "QVQLEESGGGLVQAGGSLRLSCAASGRIFSDYAKGGYRQAPGKERELVATITSGDSTNYADSVKGRFTISRDNAKNTVYLQMNRLKPEDTAVYYCNADRFADYDYWGQGTQVTVSS", "polyreactivity (PSR sort gate)": "low polyreactivity"}
{"sequence": "QVQLEESGGGLVQAGGSLRLSCAASGRIFSPNVRGWYRKATGKERELVAGITSSGGSTYYADSVKGRLTISRDNAKNTVYLQMNSLKPEYTAVYYCAAPWVGTFVSGRGYYWGQGTQVTVSS", "polyreactivity (PSR sort gate)": "low polyreactivity"}
{"sequence": "QVQLEESGGGLVQAGGSLRLSCAASGRIFTRYALGWYRQAPGKERELVAAITGSGGSTYYADSVKGRFTISRDNAKNTVYLQMNSRKPEDTAVYYCATDFYCYRSYNYWGQGTQVTVSS", "polyreactivity (PSR sort gate)": "high polyreactivity"}
{"sequence": "QVQLEESGGGLVQAGGSLRLSCAASGRILAKYAMGWYRPAPRKEREFVDAISYSGGSTYYADSVKGRFTISRDNAKNNVYLLMNRLKPEYTAVYYCAASSYVLYRTRKMYFWGQGTQVTVSS", "polyreactivity (PSR sort gate)": "high polyreactivity"}
{"sequence": "QVQLEESGGGLVQAGGSLRLSCAASGRTFFPYAMGWYRQAPGKERELVAAISHGGRTYYADSVKGRFTISRDNAKNTVYLQMNSLKPEDTAVYYCNALSARSYYWGQGTQVTVSS", "polyreactivity (PSR sort gate)": "high polyreactivity"}
{"sequence": "QVQLEESGGGLVQAGGSLRLSCAASGRTFGLYAMGWYRQAPGKERELVAAITRSDGGTNYADSVKGRFTISRDNAKNTVYVQMNSLKPEDTSVYYCAVDLGYVSDVSWYAYEYWGQGTQVTVSS", "polyreactivity (PSR sort gate)": "low polyreactivity"}
{"sequence": "QVQLEESGGGLVQAGGSLRLSCAASGRTFGSNAMGWYRQAPGKERELVAAIRERGGSTYADSVKGRFTISRDNAKNTVYLQMNSLKPEDTAVYYCAADRSVIWSKNYDYWGQGTQVTVSS", "polyreactivity (PSR sort gate)": "low polyreactivity"}
{"sequence": "QVQLEESGGGLVQAGGSLRLSCAASGRTFGTNAMGWYRQAPGKERELVAAITTNGGRTYYADSVKGRFTISRDNAKNTVYLQMNSLKPEDTAVYYCAKYYQTDTYIYDYWGQGTQVTVSS", "polyreactivity (PSR sort gate)": "low polyreactivity"}
{"sequence": "QVQLEESGGGLVQAGGSLRLSCAASGRTFGYYAMGWYRQAPGKERELVAAISTRSGSTYYADSVKGRFTISRDNAKNTVYLQMISLKPEDTAVYYCAADSYPDYDYWGQGTQVTVSS", "polyreactivity (PSR sort gate)": "low polyreactivity"}
{"sequence": "QVQLEESGGGLVQAGGSLRLSCAASGRTFIYYAMGWYRQATGKEREFVAAITKSGGTTYYADSVKGRFTISRHNAKNTVYLQMNSLKPEDTAVYYCAKTTRRGFALYDYWGQGTQVTVSS", "polyreactivity (PSR sort gate)": "high polyreactivity"}
{"sequence": "QVQLEESGGGLVQAGGSLRLSCAASGRTFRLNVMGWYREAPGKQRELVAAISTRGGDTYYADSVKGRFTISLDNAKNTDYLQMNSLKPEDTALYYCAAEYTYVYDYWGQGTQVTLSS", "polyreactivity (PSR sort gate)": "high polyreactivity"}
{"sequence": "QVQLEESGGGLVQAGGSLRLSCAASGRTFRRNAMGWYRQAPGKERELVADISNGDSTKYADSVKGRFTISRDNAKNTVYLQMHSLIPEDTAVYYCNAQRYRVVVYISHGWQTRNYWGQGTQVTVSS", "polyreactivity (PSR sort gate)": "low polyreactivity"}
{"sequence": "QVQLEESGGGLVQAGGSLRLSCAASGRTFWLYAMGRYRQAPGKEREFVASISSSGDSTYYADSVKGRFTISRDNAKNTVYLQMNSLKPEDTAVYDCAARPSRRYLRNGLDYWGQGTQVTVSS", "polyreactivity (PSR sort gate)": "high polyreactivity"}
{"sequence": "QVQLEESGGGLVQAGGSLRLSCAASGRTFYYNAMGSSRQAPGKERELVAGITYRGGSTYYADSVKGRFTISRDNAKNTVYLQMNSLKPEDTAVYYCAVKYSWLSRFNYWGLGTQVTVSS", "polyreactivity (PSR sort gate)": "high polyreactivity"}
{"sequence": "QVQLEESGGGLVQAGGSLRLSCAASGRTLDYYAMGWYRQAPGKERELVASITSGGSTNYADSVKGRFTISRDNAKNTVYLQMNSLKPEDTAVYYCAADSAFYRDVKSNYWGQGTQVTVSS", "polyreactivity (PSR sort gate)": "low polyreactivity"}
{"sequence": "QVQLEESGGGLVQAGGSLRLSCAASGRTLRVNAIGWYRQAPGKERELVAANSSGGRTNYADSVKGRFTISRDNAKNTVYLQMNSLKPEDTAVYYCAVDRPRFPSRPPYHKYDYWGQGTQVTVSS", "polyreactivity (PSR sort gate)": "low polyreactivity"}
{"sequence": "QVQLEESGGGLVQAGGSLRLSCAASGSIFDLNAMGWYRQAPGKERELVAANSSGGGTYYADSVKGRFTISRDNAKNTVYLQMNSLKPEDTAVYYCAAVGYKGYGYDYWGQGTQVTVSS", "polyreactivity (PSR sort gate)": "high polyreactivity"}
{"sequence": "QVQLEESGGGLVQAGGSLRLSCAASGSIFDSYAMGWYRAAPGKERELVATINTSGGSTYYADSVKGRFTIHDNAKNTVYLQMNSLKPEDTAVYYCNAGRWVYWQNNFGDYGYWGQGTQVTVSS", "polyreactivity (PSR sort gate)": "low polyreactivity"}
{"sequence": "QVQLEESGGGLVQAGGSLRLSCAASGSIFDYYAMGWYRKATGKERELVAAISWSGGSTYYADSVKGRFTISRDNAKNTVYLKMIILKPEDTAVYYCAADSSGIGYSSLYFNWGQGSQVTVSS", "polyreactivity (PSR sort gate)": "low polyreactivity"}
{"sequence": "QVQLEESGGGLVQAGGSLRLSCAASGSIFPRFYAIGWYRQAPGKERELVAAISWRDGSTFYADSVKGRFTISRDNAKNTVYLQMNSLKPEDTGVYYCAAATYRYGYGYWGQGTQVTVSS", "polyreactivity (PSR sort gate)": "high polyreactivity"}
{"sequence": "QVQLEESGGGLVQAGGSLRLSCAASGSIFRRYARGWYRQAPGKERELVAAISRSGSSTYADSVKGRFTISRDNAKNTVYLQMNSLKPEDTAVYYCAASYAFLYYGYDSWGQGTQVTVSS", "polyreactivity (PSR sort gate)": "low polyreactivity"}
{"sequence": "QVQLEESGGGLVQAGGSLRLSCAASGSIFSYNSMGWYRQAPGKDREFVATIDWRDGSTYYADSVKGRFTISRDNGKNTVYLQMNSMKPEDTAVYYCATDYIVVEDYYWGQGTQVTVSS", "polyreactivity (PSR sort gate)": "high polyreactivity"}
{"sequence": "QVQLEESGGGLVQAGGSLRLSCAASGSIFTVNAMGWYRQAPGKERELVAAISSGGSTHYADSVKGRFTISRDNAKNTVYLQMNSLKPEDTAVYFCNAAGAYPDRDNYWGQGTQVTVSS", "polyreactivity (PSR sort gate)": "low polyreactivity"}
{"sequence": "QVQLEESGGGLVQAGGSLRLSCAASGSIIDYYAMGWYRQAPGKERELVADITVTGDGTYYADSVKGRFTISRDNAKNTVYLQMNSLKPEDTAVYYCAADFWLVSFQWDFEYDYWGQGTQVTVSS", "polyreactivity (PSR sort gate)": "low polyreactivity"}
{"sequence": "QVQLEESGGGLVQAGGSLRLSCAASGSILESNVMGWYRQAPGKERELVASISSSGDSTYADSVKGRFTISRDNAKNTVYLQMNSLKPEDTAVYYCAADRWYWTYALYYWGQGTQVTVSS", "polyreactivity (PSR sort gate)": "low polyreactivity"}
{"sequence": "QVQLEESGGGLVQAGGSLRLSCAASGSTFAGNAMGWYRQAPGKERELVAAISGSGGITYYADSVKGRFTISRDNAKNTVYLQMNSLKAEDTAVYYCNAYYWFSRYGYWGQGTQVNVSS", "polyreactivity (PSR sort gate)": "high polyreactivity"}
{"sequence": "QVQLEESGGGLVQAGGSLRLSCAASGSTFAPNAMGWYRAAPGKEMELVASIRRGGSTHYADSVKGRFTISRDNAKNTVYFQMNSLQPEDTAVYYCAAEFRDVSSNGYDFLGQGTQVTVSS", "polyreactivity (PSR sort gate)": "low polyreactivity"}
{"sequence": "QVQLEESGGGLVQAGGSLRLSCAASGSTFDYYARGWYRPAPGKERELVAVISSGGSTYYADSVKGRFTISRDNAKNTVYLQMNSLKPEDTAVYYCAAETYYYVLPHWYKYKYGYWGQGTQVTVSS", "polyreactivity (PSR sort gate)": "low polyreactivity"}
{"sequence": "QVQLEESGGGLVQAGGSLRLSCAASGSTFGYNAMGWYRQAPGKERELVAAITSGGRTKYADSVKGRFTISRDNAKNTVYLQMNSLKPEDTAVYYCATDQSYRFLFYRAYDMDYWGQGTQVTVSS", "polyreactivity (PSR sort gate)": "high polyreactivity"}
{"sequence": "QVQLEESGGGLVQAGGSLRLSCAASGSTFGYYAMGWYRQAPGKERELVAAISWSGTRTYYADSVKGRFTISRDNAKNTVYLQMNSLKPEDTAVYYCAAVYRGSYRGSYRFDDSHYDYSGQGTQVTVSS", "polyreactivity (PSR sort gate)": "high polyreactivity"}
{"sequence": "QVQLEESGGGLVQAGGSLRLSCAASGSTFHLYAMGLYRQAPGKEREFVAAIRGRGGNTYADSVKGRFTISRDNAKNTVYLQMNSLKPEDTAVYYCAAPLLRDLRSQYYYIYWGQCTQVTVSS", "polyreactivity (PSR sort gate)": "low polyreactivity"}
{"sequence": "QVQLEESGGGLVQAGGSLRLSCAASGSTFNDYAMGRYRQAPGKERELVAAISSSGGITYYADSVKGRFTISRDNAKNTVYLQMNSLKPEDTEVYYCAASGRDWSWYDYWGQGTQVTVSS", "polyreactivity (PSR sort gate)": "low polyreactivity"}
{"sequence": "QVQLEESGGGLVQAGGSLRLSCAASGSTFRRYTMGWYRQAPGKERELVAAITRGGSTYYADSVKGRFTISRDNAKNTVYLQMNSLKPEDTAVYYCAVKYFTAFRLRGDYWGQGTQVTVSS", "polyreactivity (PSR sort gate)": "high polyreactivity"}
{"sequence": "QVQLEESGGGLVQAGGSLRLSCAASGSTFRYYVMGWYRPAPGKERYLVAAITSSGSTNYADSVKGRFTISRDNAKNTVYLQMNSLKPEDTAVYYCAAVYRDRSQKKRIFYYWGQGTQVTVSS", "polyreactivity (PSR sort gate)": "high polyreactivity"}
